Reference: paper PMC3824679 (Cell Death & Disease, 2013)

Molecular target: T1, GST-RanBP2-M1_(900–1826) (human, UniProt P49792 900-1826)
T1 sequence (looked up): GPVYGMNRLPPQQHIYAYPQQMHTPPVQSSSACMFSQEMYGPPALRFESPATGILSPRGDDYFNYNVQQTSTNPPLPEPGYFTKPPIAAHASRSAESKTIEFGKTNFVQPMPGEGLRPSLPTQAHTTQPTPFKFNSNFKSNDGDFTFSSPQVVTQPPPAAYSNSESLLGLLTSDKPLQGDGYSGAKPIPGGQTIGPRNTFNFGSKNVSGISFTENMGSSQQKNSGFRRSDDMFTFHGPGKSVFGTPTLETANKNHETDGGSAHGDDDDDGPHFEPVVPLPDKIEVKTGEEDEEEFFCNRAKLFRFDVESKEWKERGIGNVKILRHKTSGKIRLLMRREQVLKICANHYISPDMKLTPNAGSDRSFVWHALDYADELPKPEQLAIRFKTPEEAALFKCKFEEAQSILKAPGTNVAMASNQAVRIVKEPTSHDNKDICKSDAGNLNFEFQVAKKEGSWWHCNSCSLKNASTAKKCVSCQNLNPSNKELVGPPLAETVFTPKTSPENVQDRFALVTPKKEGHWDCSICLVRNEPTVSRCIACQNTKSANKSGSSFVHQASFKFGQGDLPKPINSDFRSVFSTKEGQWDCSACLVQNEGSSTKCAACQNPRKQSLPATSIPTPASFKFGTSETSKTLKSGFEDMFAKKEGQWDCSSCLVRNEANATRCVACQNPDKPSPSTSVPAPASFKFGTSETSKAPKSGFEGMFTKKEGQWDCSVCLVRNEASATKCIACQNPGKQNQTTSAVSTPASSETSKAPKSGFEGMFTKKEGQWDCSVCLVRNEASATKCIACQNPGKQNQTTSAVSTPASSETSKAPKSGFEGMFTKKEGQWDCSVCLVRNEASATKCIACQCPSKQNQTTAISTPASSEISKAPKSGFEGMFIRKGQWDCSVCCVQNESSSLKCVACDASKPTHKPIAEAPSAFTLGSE
Assay: pull-down

B1: His-Imp-β1-N2_(1–650) (domain or fragment, human, UniProt Q14974 1-650, looked up)
chain: MELITILEKTVSPDRLELEAAQKFLERAAVENLPTFLVELSRVLANPGNSQVARVAAGLQIKNSLTSKDPDIKAQYQQRWLAIDANARREVKNYVLQTLGTETYRPSSASQCVAGIACAEIPVNQWPELIPQLVANVTNPNSTEHMKESTLEAIGYICQDIDPEQLQDKSNEILTAIIQGMRKEEPSNNVKLAATNALLNSLEFTKANFDKESERHFIMQVVCEATQCPDTRVRVAALQNLVKIMSLYYQYMETYMGPALFAITIEAMKSDIDEVALQGIEFWSNVCDEEMDLAIEASEAAEQGRPPEHTSKFYAKGALQYLVPILTQTLTKQDENDDDDDWNPCKAAGVCLMLLATCCEDDIVPHVLPFIKEHIKNPDWRYRDAAVMAFGCILEGPEPSQLKPLVIQAMPTLIELMKDPSVVVRDTAAWTVGRICELLPEAAINDVYLAPLLQCLIEGLSAEPRVASNVCWAFSSLAEAAYEAADVADDQEEPATYCLSSSFELIVQKLLETTDRPDGHQNNLRSSAYESLMEIVKNSAKDCYPAVQKTTLVIMERLQQVLQMESHIQSTSDRIQFNDLQSLLCATLQNVLRKVQHQDALQISDVVMASLLRMFQSTAGSGGVQEDALMAVSTLVEVLGGEFLKYMEAF
- binding result: binds
